Reference: patent publication US12099068B2, “Biomarkers for graft-versus-host disease” (Incyte Corporation, priority 2018, dated 2024)

B1: EPHB4 (protein, UniProt P54760 16-987, looked up)
Ephrin type-B receptor 4: LEETLLNTKLETADLKWVTFPQVDGQWEELSGLDEEQHSVRTYEVCDVQRAPGQAHWLRTGWVPRRGAVHVYATLRFTMLECLSLPRAGRSCKETFTVFYYESDADTATALTPAWMENPYIKVDTVAAEHLTRKRPGAEATGKVNVKTLRLGPLSKAGFYLAFQDQGACMALLSLHLFYKKCAQLTVNLTRFPETVPRELVVPVAGSCVVDAVPAPGPSPSLYCREDGQWAEQPVTGCSCAPGFEAAEGNTKCRACAQGTFKPLSGEGSCQPCPANSHSNTIGSAVCQCRVGYFRARTDPRGAPCTTPPSAPRSVVSRLNGSSLHLEWSAPLESGGREDLTYALRCRECRPGGSCAPCGGDLTFDPGPRDLVEPWVVVRGLRPDFTYTFEVTALNGVSSLATGPVPFEPVNVTTDREVPPAVSDIRVTRSSPSSLSLAWAVPRAPSGAVLDYEVKYHEKGAEGPSSVRFLKTSENRAELRGLKRGASYLVQVRARSEAGYGPFGQEHHSQTQLDESEGWREQLALIAGTAVVGVVLVLVVIVVAVLCLRKQSNGREAEYSDKHGQYLIGHGTKVYIDPFTYEDPNEAVREFAKEIDVSYVKIEEVIGAGEFGEVCRGRLKAPGKKESCVAIKTLKGGYTERQRREFLSEASIMGQFEHPNIIRLEGVVTNSMPVMILTEFMENGALDSFLRLNDGQFTVIQLVGMLRGIASGMRYLAEMSYVHRDLAARNILVNSNLVCKVSDFGLSRFLEENSSDPTYTSSLGGKIPIRWTAPEAIAFRKFTSASDAWSYGIVMWEVMSFGERPYWDMSNQDVINAIEQDYRLPPPPDCPTSLHQLMLDCWQKDRNARPRFPQVVSALDKMIRNPASLKIVARENGGASHPLLDQRQPHYSAFGSVGEWLRAIKMGRYEESFAAAGFGSFELVSQISAEDLLRIGVTLAGHQKKILASVQHMKSQAKPGTPGGTGGPAPQY
B2: CRTAM (protein, UniProt O95727 18-393, looked up)
Cytotoxic and regulatory …: SLTNHTETITVEEGQTLTLKCVTSLRKNSSLQWLTPSGFTIFLNEYPALKNSKYQLLHHSANQLSITVPNVTLQDEGVYKCLHYSDSVSTKEVKVIVLATPFKPILEASVIRKQNGEEHVVLMCSTMRSKPPPQITWLLGNSMEVSGGTLHEFETDGKKCNTTSTLIIHTYGKNSTVDCIIRHRGLQGRKLVAPFRFEDLVTDEETASDALERNSLSSQDPQQPTSTVSVTEDSSTSEIDKEEKEQTTQDPDLTTEANPQYLGLARKKSGILLLTLVSFLIFILFIIVQLFIMKLRKAHVIWKKENEVSEHTLESYRSRSNNEETSSEEKNGQSSHPMRCMNYITKLYSEAKTKRKENVQHSKLEEKHIQVPESIV
B3: hK14 (protein, UniProt Q9P0G3 41-267, looked up)
Kallikrein-14: IIGGHTCTRSSQPWQAALLAGPRRRFLCGGALLSGQWVITAAHCGRPILQVALGKHNLRRWEATQQVLRVVRQVTHPNYNSRTHDNDLMLLQLQQPARIGRAVRPIEVTQACASPGTSCRVSGWGTISSPIARYPASLQCVNINISPDEVCQKAYPRTITPGMVCAGVPQGGKDSCQGDSGGPLVCRGQLQGLVSWGMERCALPGYPGVYTNLCKYRSWIEETMRDK
B4: PEBP1 (protein, UniProt P30086 2-187, looked up)
Phosphatidylethanolamine-bindi …: PVDLSKWSGPLSLQEVDEQPQHPLHVTYAGAAVDELGKVLTPTQVKNRPTSISWDGLDSGKLYTLVLTDPDAPSRKDPKYREWHHFLVVNMKGNDISSGTVLSDYVGSGPPKGTGLHRYVWLVYEQDRPLKCDEPILSNRSGDHRGKFKVASFRKKYELRAPVAGTCYQAEWDDYVPKLYEQLSGK
B5: SCARF1 (protein, UniProt Q14162 20-830, looked up)
Scavenger receptor class F …: SELDPKGQHVCVASSPSAELQCCAGWRQKDQECTIPICEGPDACQKDEVCVKPGLCRCKPGFFGAHCSSRCPGQYWGPDCRESCPCHPHGQCEPATGACQCQADRWGARCEFPCACGPHGRCDPATGVCHCEPGWWSSTCRRPCQCNTAAARCEQATGACVCKPGWWGRRCSFRCNCHGSPCEQDSGRCACRPGWWGPECQQQCECVRGRCSAASGECTCPPGFRGARCELPCPAGSHGVQCAHSCGRCKHNEPCSPDTGSCESCEPGWNGTQCQQPCLPGTFGESCEQQCPHCRHGEACEPDTGHCQRCDPGWLGPRCEDPCPTGTFGEDCGSTCPTCVQGSCDTVTGDCVCSAGYWGPSCNASCPAGFHGNNCSVPCECPEGLCHPVSGSCQPGSGSRDTALIAGSLVPLLLLFLGLACCACCCWAPRSDLKDRPARDGATVSRMKLQVWGTLTSLGSTLPCRSLSSHKLPWVTVSHHDPEVPFNHSFIEPPSAGWATDDSFSSDPESGEADEVPAYCVPPQEGMVPVAQAGSSEASLAAGAFPPPEDASTPFAIPRTSSLARAKRPSVSFAEGTKFAPQSRRSSGELSSPLRKPKRLSRGAQSGPEGREAEESTGPEEAEAPESFPAAASPGDSATGHRRPPLGGRTVAEHVEAIEGSVQESSGPVTTIYMLAGKPRGSEGPVRSVFRHFGSFQKGQAEAKVKRAIPKPPRQALNRKKGSPGLASGSVGQSPNSAPKAGLPGATGPMAVRPEEAVRGLGAGTESSRRAQEPVSGCGSPEQDPQKQAEEERQEEPEYENVVPISRPPEP
B6: MESDC2 (protein, UniProt Q14696 34-234, looked up)
LRP chaperone MESD: AEGSPGTPDESTPPPRKKKKDIRDYNDADMARLLEQWEKDDDIEEGDLPEHKRPSAPVDFSKIDPSKPESILKMTKKGKTLMMFVTVSGSPTEKETEEITSLWQGSLFNANYDVQRFIVGSDRAIFMLRDGSYAWEIKDFLVGQDRCADVTLEGQVYPGKGGGSKEKNKTKQDKGKKKKEGDLKSRSSKEENRAGNKREDL
B7: LILRB2 (protein, UniProt Q8N423 22-597, looked up)
Leukocyte immunoglobulin-like …: QTGTIPKPTLWAEPDSVITQGSPVTLSCQGSLEAQEYRLYREKKSASWITRIRPELVKNGQFHIPSITWEHTGRYGCQYYSRARWSELSDPLVLVMTGAYPKPTLSAQPSPVVTSGGRVTLQCESQVAFGGFILCKEGEDEHPQCLNSQPHARGSSRAIFSVGPVSPNRRWSHRCYGYDLNSPYVWSSPSDLLELLVPGVSKKPSLSVQPGPVMAPGESLTLQCVSDVGYDRFVLYKEGERDLRQLPGRQPQAGLSQANFTLGPVSRSYGGQYRCYGAHNLSSECSAPSDPLDILITGQIRGTPFISVQPGPTVASGENVTLLCQSWRQFHTFLLTKAGAADAPLRLRSIHEYPKYQAEFPMSPVTSAHAGTYRCYGSLNSDPYLLSHPSEPLELVVSGPSMGSSPPPTGPISTPGPEDQPLTPTGSDPQSGLGRHLGVVIGILVAVVLLLLLLLLLFLILRHRRQGKHWTSTQRKADFQHPAGAVGPEPTDRGLQWRSSPAADAQEENLYAAVKDTQPEDGVEMDTRAAASEAPQDVTYAQLHSLTLRRKATEPPPSQEREPPAEPSIYATLAIH
B8: TANK (protein, UniProt Q92844 1-425, looked up)
TRAF family member-associated …: MDKNIGEQLNKAYEAFRQACMDRDSAVKELQQKTENYEQRIREQQEQLSLQQTIIDKLKSQLLLVNSTQDNNYGCVPLLEDSETRKNNLTLDQPQDKVISGIAREKLPKVRRQEVSSPRKETSARSLGSPLLHERGNIEKTFWDLKEEFHKICMLAKAQKDHLSKLNIPDTATETQCSVPIQCTDKTDKQEALFKPQAKDDINRGAPSITSVTPRGLCRDEEDTSFESLSKFNVKFPPMDNDSTFLHSTPERPGILSPATSEAVCQEKFNMEFRDNPGNFVKTEETLFEIQGIDPIASAIQNLKTTDKTKPSNLVNTCIRTTLDRAACLPPGDHNALYVNSFPLLDPSDAPFPSLDSPGKAIRGPQQPIWKPFPNQDSDSVVLSGTDSELHIPRVCEFCQAVFPPSITSRGDFLRHLNSHFNGET
B9: SLAMF1 (protein, UniProt Q13291 21-335, looked up)
Signaling lymphocytic …: ASYGTGGRMMNCPKILRQLGSKVLLPLTYERINKSMNKSIHIVVTMAKSLENSVENKIVSLDPSEAGPPRYLGDRYKFYLENLTLGIRESRKEDEGWYLMTLEKNVSVQRFCLQLRLYEQVSTPEIKVLNKTQENGTCTLILGCTVEKGDHVAYSWSEKAGTHPLNPANSSHLLSLTLGPQHADNIYICTVSNPISNNSQTFSPWPGCRTDPSETKPWAVYAGLLGGVIMILIMVVILQLRRRGKTNHYQTTVEKKSLTIYAQVQKPGPLQKKLDSFPAQDPCTTIYVAATEPVPESVQETNSITVYASVTLPES
B10: CPXM1 (protein, UniProt Q96SM3 21-734, looked up)
Probable carboxypeptidase X1: APRNSVLGLAQPGTTKVPGSTPALHSSPAQPPAETANGTSEQHVRIRVIKKKKVIMKKRKKLTLTRPTPLVTAGPLVTPTPAGTLDPAEKQETGCPPLGLESLRVSDSRLEASSSQSFGLGPHRGRLNIQSGLEDGDLYDGAWCAEEQDADPWFQVDAGHPTRFSGVITQGRNSVWRYDWVTSYKVQFSNDSRTWWGSRNHSSGMDAVFPANSDPETPVLNLLPEPQVARFIRLLPQTWLQGGAPCLRAEILACPVSDPNDLFLEAPASGSSDPLDFQHHNYKAMRKLMKQVQEQCPNITRIYSIGKSYQGLKLYVMEMSDKPGEHELGEPEVRYVAGMHGNEALGRELLLLLMQFLCHEFLRGNPRVTRLLSEMRIHLLPSMNPDGYEIAYHRGSELVGWAEGRWNNQSIDLNHNFADLNTPLWEAQDDGKVPHIVPNHHLPLPTYYTLPNATVAPETRAVIKWMKRIPFVLSANLHGGELVVSYPFDMTRTPWAARELTPTPDDAVFRWLSTVYAGSNLAMQDTSRRPCHSQDFSVHGNIINGADWHTVPGSMNDFSYLHTNCFEVTVELSCDKFPHENELPQEWENNKDALLTYLEQVRMGIAGVVRDKDTELGIADAVIAVDGINHDVTTAWGGDYWRLLTPGDYMVTASAEGYHSVTRNCRVTFEEGPFPCNFVLTKTPKQRLRELLAAGAKVPPDLRRRLERLRGQKD
B11: PDGF subunit B (protein, UniProt P01127 82-190, looked up)
Platelet-derived growth …: SLGSLTIAEPAMIAECKTRTEVFEISRRLIDRTNANFLVWPPCVEVQRCSGCCNNRNVQCRPTQVQLRPVQVRKIEIVRKKPIFKKATVTLEDHLACKCETVAAARPVT
B12: CCL17 (protein, UniProt Q92583 24-94, looked up)
C-C motif chemokine 17: ARGTNVGRECCLEYFKGAIPLRKLKTWYQTSEDCSRDAIVFVTVQGRAICSDPNNKRVKNAVKYLQSLERS

Tested on: plasma proteins
Assay: Plasma proteins modulated between baseline and day 28 in responders (CR, VGPR, PR; n = 19), Example 6 (Table 13)
Assay type: in vivo, human
Settings: plasma protein (OLINK NPX); responders (CR, VGPR, PR; n = 19); itacitinib 200 mg or 300 mg QD with corticosteroids; day 28 vs baseline
Outline: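 Plasma at baseline/screening and day 28 profiled for >1000 proteins by OLINK proximity extension assay, reported as NPX (log2). Steroid-naive and steroid-refractory patients pooled. Paired and unpaired t tests, ANOVA and Pearson correlation applied; significance at P<0.05.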

In order of falling “Fold Change, Decreased Expression from Baseline to Day 28” value:
1. B9  −1.2218
2. B1  −1.2339
3. B7  −1.2555
4. B4  −1.307
5. B8  −1.3124
6. B5  −1.3509
7. B10  −1.4779
8. B2  −1.5805
9. B6  −1.7056
10. B11  −1.9124
11. B12  −3.059

With B3 the “Fold Change, Increased Expression from Baseline to Day 28” value was 1.5574.
